B1: S8-ATX1E4 (antibody, V domains shown)
VH: QVQLVQSGSELKKPGASVKVSCKTSGYTFTSYAMNWVRQAPGQGLEWMGWINTNTGNPTYAQGFRGRFVFSLDTSVSTAYLQISSLKAEDTAVYYCARDKYSSSWYWFDSWGQGTLVTVSS
VL: DIQMTQSPSSLSASVGDRVTITCRPSQNISSYLNWYQQKPGKAPKLLIYAASSLRSGVPSRFSGSGSGTDFTLTVSSLQPEDFANYYCQQSYSTPYTFGRGTKLEIK
B2: S8-ATX2A3 (antibody, V domains shown)
VH: QVQLQESGPGLVKPSETLSLTCTVSGASISGYYWNWIRQPPGKGLEWIGYIHYSGTTNYNPSLKSRITISLDTSENQFSLRLSSVTAADTAVYYCARDWYTGYDWEGFDYWGQGTLVTVSS
VL: QSVLTQPPSVSGAPGQRVSFSCTGTSSNIGTGFDVHWYRQLPGTAPKVLIYNNNNRPSGVPDRFSASKSGTSASLAITGLQAEDEADYYCQSYDSSLSGSVFGGGTRLTVL
B3: S8-ATX2G9 (antibody, V domains shown)
VH: EVQLVESGGGVVRPGGSLRLSCAASGFTFDDYGMSWVRQAPGKGLEWVSGINWNGGSTGYADSVKGRFSISRDNAKNSLYLQMNSLRAEDTALYYCAREGITILRGVIIEDWYFDLWGRGTLVIVSS
VL: not shown
B4: S8-ATX2B11 (antibody, V domains shown)
VH: EVQLVESGGGVVRPGGSLRLSCAASGFTLDDYGMSWVRQAPGKGLEWVSGINWNGATTDYADSVKGRFSISRDNAKNSVYLQMNSLRAEDTALYYCAREGITMVRGVIIEDWYFDLWGRGTLVTVSS
VL: not shown
B5: S8-ATX1H4 (antibody, V domains shown)
VH: QVQLVQSGTEVKYPGASVKVSCKASGYTFIDYGISWVRQAPGQGLEWMGWISAYNGNTDYAQKLQGRVTMTTDTSTSTAYMDLRSLRSDDTAVYYCAREGEGYCTYGVCPSFDYWGQGTLVTVSS
VL: EIVLTQSPGTLSLSPGERATLSCRASQSVSSSYLAWYQQKPGQAPRLLIYGASTRGTGIPDRFSGSGSGTDFTLTISRLEPEDFALYYCQQYGSSPYTFGQGTKLEIK
B6: S8-ATX1E1 (antibody, V domains shown)
VH: EVQLVESGGGLVQPGRSLRLSCAASGFMFDDYVMHWVRQAPGKGLEWVSGINWNSDNIGYADSVKGRFTISRDNAKNSLFLQMNSLRVEDTALYYCAKDIDAAAFDYWGQGTLVTVSS
VL: DIVMTQSPLSLPVTPGEPASISCRSSQSLLHSNGYSYLAWYLQKPGQSPQLLIYLVSNRASGVPDRFTGSGSGTDFTLKISRVEAEDVGVYYCMQALQTPWTFGQGTKVEIK
B7: S8-ATX1E2 (antibody, V domains shown)
VH: EVQLVESGGGLVKPGESLRLSCAASGFTFSNAWMSWVRQAPGKGLEWVGRDGGARDYAAPVKGRFTISRDDSKNTLYLQMNTLKTEDTAVYYCTKGAFFFDYWGQGTLVTVSS
VL: EIVLTQSPGTLSLSPGERATLSCRASQSVISGYLAWYQQKPGQAPRLLIYGASRRATGITDRFSGSGSGTDFTLIISRLEPEDSAVYYCQQYDSSPRTFGQGTKVEIK
B8: S8-ATX2F10 (antibody, V domains shown)
VH: EVQLVESGGDLVKSGGSLRLSCAASGFTFSDAWMSWVRQAPGKGLEWVGRIQSKTDGGTTDYVAPVKGRFTISRDDSKDTLYLHMNSLTTEDTAVYYCTTDLYYYGSGSYFLGQGTLVTVSS
VL: DIQMTQSPSSLSASVGDRVTITCRASQNIITYLNWYQQKPGKAPKLLIYAASSLQSGVPSRFSGSGSGTDFTLTISSLQPEDFAIYHCQQSYNVPTTFGQGTKLEIK
B9: S8-ATX1B6 (antibody, V domains shown)
VH: QVQLVESGGGVVLPGRSLRLSCAASGFTFNIYGMHWVRQAPGKGLEWVAVISYDGNNKEYADSVKGRFTISRDSSRNTLYLQMNSLRAEDTAVYYCAKRGYGSSSLEFWGQGTLVTVSS
VL: DIQMTQSPSSLSASVGDRVTITCRSSQDIRNDLGWYQQKPGKAPKRLIYASSNLQSGVPSRFSGSGSGTEFTLTISSLQPDDFATYYCLQHNTYPYTFGQGTKLEIK
B10: S8-ATX1B4 (antibody, V domains shown)
VH: QVQLVESGGGVVQPGRSLRLSCAASGFTFSIYGMHWVRQAPGKGLEWVAVISYDGNNKDYTDSVKGRFTISRDNSKNTLYLQMNSLTAEDTAVYYCAKRGYGSSSLEFWGQGTLVTVSS
VL: DIQMTQSPSSLSASVGDRVTITCRASQDIRNDLGWYQQKPGKAPKRLIYATSSLQSGVPSRFSGSRSGAEFTLTVSSLQPEDFATYYCLQHNTYPYTFGQGTKLEIK

Biological target: full-length human Siglec-8 (Siglec-8^FL) (human, UniProt Q9NYZ4 17-499)
Sequence (Q9NYZ4 17-499): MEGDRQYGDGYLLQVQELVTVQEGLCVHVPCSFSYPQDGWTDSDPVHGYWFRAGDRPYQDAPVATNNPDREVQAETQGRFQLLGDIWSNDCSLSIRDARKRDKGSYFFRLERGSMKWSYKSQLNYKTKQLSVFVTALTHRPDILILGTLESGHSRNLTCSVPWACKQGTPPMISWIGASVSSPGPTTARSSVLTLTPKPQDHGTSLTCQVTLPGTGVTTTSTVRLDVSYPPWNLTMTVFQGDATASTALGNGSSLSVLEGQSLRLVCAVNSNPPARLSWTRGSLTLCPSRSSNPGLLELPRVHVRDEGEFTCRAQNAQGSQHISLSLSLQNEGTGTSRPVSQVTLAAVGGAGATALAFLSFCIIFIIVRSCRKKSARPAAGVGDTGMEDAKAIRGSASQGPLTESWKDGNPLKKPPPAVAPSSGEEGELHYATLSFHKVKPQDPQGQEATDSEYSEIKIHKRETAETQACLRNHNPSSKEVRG
Assay: BLI

| Binder | Kd |
| --- | --- |
| B1 | 0.917 nM |
| B2 | < 0.001 nM |
| B3 | 0.00413 nM |
| B4 | 10 nM |
| B5 | < 0.001 nM |
| B6 | 0.589 nM |
| B7 | 0.655 nM |
| B8 | 100 nM |
| B9 | 0.00219 nM |
| B10 | 0.502 nM |
